Results taken from patent US20230407373A1 (priority 2020, published 2023).

B1: ZNF622 (protein, UniProt Q969S3 2-477, looked up)
Cytoplasmic 60S subunit …: ATYTCITCRVAFRDADMQRAHYKTDWHRYNLRRKVASMAPVTAEGFQERVRAQRAVAEEESKGSATYCTVCSKKFASFNAYENHLKSRRHVELEKKAVQAVNRKVEMMNEKNLEKGLGVDSVDKDAMNAAIQQAIKAQPSMSPKKAPPAPAKEARNVVAVGTGGRGTHDRDPSEKPPRLQWFEQQAKKLAKQQEEDSEEEEEDLDGDDWEDIDSDEELECEDTEAMDDVVEQDAEEEEAEEGPPLGAIPITDCLFCSHHSSSLMKNVAHMTKDHSFFIPDIEYLSDIKGLIKYLGEKVGVGKICLWCNEKGKSFYSTEAVQAHMNDKSHCKLFTDGDAALEFADFYDFRSSYPDHKEGEDPNKAEELPSEKNLEYDDETMELILPSGARVGHRSLMRYYKQRFGLSRAVAVAKNRKAVGRVLQQYRALGWTGSTGAALMRERDMQYVQRMKSKWMLKTGMKNNATKQMHFRVQVRF
B2: VIL1 (protein, UniProt P09327 2-827, looked up)
Villin-1: TKLSAQVKGSLNITTPGLQIWRIEAMQMVPVPSSTFGSFFDGDCYIILAIHKTASSLSYDIHYWIGQDSSLDEQGAAAIYTTQMDDFLKGRAVQHREVQGNESEAFRGYFKQGLVIRKGGVASGMKHVETNSYDVQRLLHVKGKRNVVAGEVEMSWKSFNRGDVFLLDLGKLIIQWNGPESTRMERLRGMTLAKEIRDQERGGRTYVGVVDGENELASPKLMEVMNHVLGKRRELKAAVPDTVVEPALKAALKLYHVSDSEGNLVVREVATRPLTQDLLSHEDCYILDQGGLKIYVWKGKKANEQEKKGAMSHALNFIKAKQYPPSTQVEVQNDGAESAVFQQLFQKWTASNRTSGLGKTHTVGSVAKVEQVKFDATSMHVKPQVAAQQKMVDDGSGEVQVWRIENLELVPVDSKWLGHFYGGDCYLLLYTYLIGEKQHYLLYVWQGSQASQDEITASAYQAVILDQKYNGEPVQIRVPMGKEPPHLMSIFKGRMVVYQGGTSRTNNLETGPSTRLFQVQGTGANNTKAFEVPARANFLNSNDVFVLKTQSCCYLWCGKGCSGDEREMAKMVADTISRTEKQVVVEGQEPANFWMALGGKAPYANTKRLQEENLVITPRLFECSNKTGRFLATEIPDFNQDDLEEDDVFLLDVWDQVFFWIGKHANEEEKKAAATTAQEYLKTHPSGRDPETPIIVVKQGHEPPTFTGWFLAWDPFKWSNTKSYEDLKAELGNSRDWSQITAEVTSPKVDVFNANSNLSSGPLPIFPLEQLVNKPVEELPEGVDPSRKEEHLSIEDFTQAFGMTPAAFSALPRWKQQNLKKEKGLF
B3: NOP56 (protein, UniProt O00567 1-594, looked up)
Nucleolar protein 56: MVLLHVLFEHAVGYALLALKEVEEISLLQPQVEESVLNLGKFHSIVRLVAFCPFASSQVALENANAVSEGVVHEDLRLLLETHLPSKKKKVLLGVGDPKIGAAIQEELGYNCQTGGVIAEILRGVRLHFHNLVKGLTDLSACKAQLGLGHSYSRAKVKFNVNRVDNMIIQSISLLDQLDKDINTFSMRVREWYGYHFPELVKIINDNATYCRLAQFIGNRRELNEDKLEKLEELTMDGAKAKAILDASRSSMGMDISAIDLINIESFSSRVVSLSEYRQSLHTYLRSKMSQVAPSLSALIGEAVGARLIAHAGSLTNLAKYPASTVQILGAEKALFRALKTRGNTPKYGLIFHSTFIGRAAAKNKGRISRYLANKCSIASRIDCFSEVPTSVFGEKLREQVEERLSFYETGEIPRKNLDVMKEAMVQAEEAAAEITRKLEKQEKKRLKKEKKRLAALALASSENSSSTPEECEEMSEKPKKKKKQKPQEVPQENGMEDPSISFSKPKKKKSFSKEELMSSDLEETAGSTSIPKRKKSTPKEETVNDPEEAGHRSGSKKKRKFSKEEPVSSGPEEAVGKSSSKKKKKFHKASQED
B4: HIST1H1D (protein, UniProt P16402 2-221, looked up)
Histone H1.3: SETAPLAPTIPAPAEKTPVKKKAKKAGATAGKRKASGPPVSELITKAVAASKERSGVSLAALKKALAAAGYDVEKNNSRIKLGLKSLVSKGTLVQTKGTGASGSFKLNKKAASGEGKPKAKKAGAAKPRKPAGAAKKPKKVAGAATPKKSIKKTPKKVKKPATAAGTKKVAKSAKKVKTPQPKKAAKSPAKAKAPKPKAAKPKSGKPKVTKAKKAAPKKK
B5: NFXL1 (protein, UniProt Q6ZNB6 1-911, looked up)
NF-X1-type zinc finger …: MEASWRQVAGGRGRSRGRATAAPSGNGVHLRGAGGGREKGSVGAVPSGTSPGGVATTAAAGSRHSPAGSQALQTTAASELMSQKKFEEIKKANQAAARKLVEEQFSSSSEEGDEDFEGKQGKILANTFITYTTQTDGDTRELERTKQYVNEAFQAGAMTCLICIASVKRNQAVWSCSGCFCIFHMPCIQKWAKDSQFLVSSVTDDDFGKKDCPWPCPKCRFEYKRSETPSRYYCYCGKVEDPPLDPWLVPHSCGQVCEREFKPPCGHKCLLLCHPGPCPPCPKMVTTTCYCKKAKPIPRRCSAKEWSCQLPCGQKLLCGQHKCENPCHAGSCQPCPRVSRQKCVCGKKVAERSCASPLWHCDQVCGKTLPCGNHTCEQVCHVGACGECPRSGKRFCPCQKSKFSLPCTEDVPTCGDSCDKVLECGIHRCSQRCHRGPCETCRQEVEKHCRCGKHTKRMPCHKPYLCETKCVKMRDCQKHQCRRKCCPGNCPPCDQNCGRTLGCRNHKCPSVCHRGSCYPCPETVDVKCNCGNTKVTVPCGRERTTRPPKCKEQCSRPPTCHHTSQEKHRCHFGSCPPCHQPCQKVLEKCGHLCPAPCHDQALIKQTGRHQPTGPWEQPSEPAFIQTALPCPPCQVPIPMECLGKHEVSPLPCHAVGPYSCKRVCGRILDCQNHTCMKECHKVTKTDGCTGKNKAGPECLHCEEGCSKSRPLGCLHPCILRCHPGECPPCVQMLRIKCHCKITSLYVECRKITTADVNEKNLLSCCKNQCPKELPCGHRCKEMCHPGECPFNCNQKVKLRCPCKRIKKELQCNKVRENQVSIECDTTCKEMKRKASEIKEAEAKAALEEEKRRQQAELEAFENRLKGRRKKNRKRDEVAVELSLWQKHKYYLISVCGVVVVVFAWYITHDVN
B6: GANAB (protein, UniProt Q14697 29-944, looked up)
Neutral alpha-glucosidase AB: ITLAVDRSNFKTCEESSFCKRQRSIRPGLSPYRALLDSLQLGPDSLTVHLIHEVTKVLLVLELQGLQKNMTRFRIDELEPRRPRYRVPDVLVADPPIARLSVSGRDENSVELTMAEGPYKIILTARPFRLDLLEDRSLLLSVNARGLLEFEHQRAPRVSQGSKDPAEGDGAQPEETPRDGDKPEETQGKAEKDEPGAWEETFKTHSDSKPYGPMSVGLDFSLPGMEHVYGIPEHADNLRLKVTEGGEPYRLYNLDVFQYELYNPMALYGSVPVLLAHNPHRDLGIFWLNAAETWVDISSNTAGKTLFGKMMDYLQGSGETPQTDVRWMSETGIIDVFLLLGPSISDVFRQYASLTGTQALPPLFSLGYHQSRWNYRDEADVLEVDQGFDDHNLPCDVIWLDIEHADGKRYFTWDPSRFPQPRTMLERLASKRRKLVAIVDPHIKVDSGYRVHEELRNLGLYVKTRDGSDYEGWCWPGSAGYPDFTNPTMRAWWANMFSYDNYEGSAPNLFVWNDMNEPSVFNGPEVTMLKDAQHYGGWEHRDVHNIYGLYVHMATADGLRQRSGGMERPFVLARAFFAGSQRFGAVWTGDNTAEWDHLKISIPMCLSLGLVGLSFCGADVGGFFKNPEPELLVRWYQMGAYQPFFRAHAHLDTGRREPWLLPSQHNDIIRDALGQRYSLLPFWYTLLYQAHREGIPVMRPLWVQYPQDVTTFNIDDQYLLGDALLVHPVSDSGAHGVQVYLPGQGEVWYDIQSYQKHHGPQTLYLPVTLSSIPVFQRGGTIVPRWMRVRRSSECMKDDPITLFVALSPQGTAQGELFLDDGHTFNYQTRQEFLLRRFSFSGNTLVSSSADPEGHFETPIWIERVVIIGAGKPAAVVLQTKGSPESRLSFQHDPETSVLVLRKPGINVASDWSIHLR
B7: PATLI (protein, UniProt Q86TB9 1-770, looked up)
Protein PAT1 homolog 1: MFRYESLEDCPLDEDEDAFQGLGEEDEEIDQFNDDTFGSGAVDDDWQEAHERLAELEEKLPVAVNEQTGNGERDEMDLLGDHEENLAERLSKMVIENELEDPAIMRAVQTRPVLQPQPGSLNSSIWDGSEVLRRIRGPLLAQEMPTVSVLEYALPQRPPQGPEDDRDLSERALPRRSTSPIIGSPPVRAVPIGTPPKQMAVPSFTQQILCPKPVHVRPPMPPRYPAPYGERMSPNQLCSVPNSSLLGHPFPPSVPPVLSPLQRAQLLGGAQLQPGRMSPSQFARVPGFVGSPLAAMNPKLLQGRVGQMLPPAPGFRAFFSAPPSATPPPQQHPPGPGPHLQNLRSQAPMFRPDTTHLHPQHRRLLHQRQQQNRSQHRNLNGAGDRGSHRSSHQDHLRKDPYANLMLQREKDWVSKIQMMQLQSTDPYLDDFYYQNYFEKLEKLSAAEEIQGDGPKKERTKLITPQVAKLEHAYKPVQFEGSLGKLTVSSVNNPRKMIDAVVTSRSEDDETKEKQVRDKRRKTLVIIEKTYSLLLDVEDYERRYLLSLEEERPALMDDRKHKICSMYDNLRGKLPGQERPSDDHFVQIMCIRKGKRMVARILPFLSTEQAADILMTTARNLPFLIKKDAQDEVLPCLLSPFSLLLYHLPSVSITSLLRQLMNLPQSAATPALSNPHLTAVLQNKFGLSLLLILLSRGEDLQSSDPATESTQNNQWTEVMFMATRELLRIPQAALAKPISIPTNLVSLFSRYVDRQKLNLLETKLQLVQGIR
B8: EEF1A2 (protein, UniProt Q05639 2-463, looked up)
Elongation factor 1-alpha 2: GKEKTHINIVVIGHVDSGKSTTTGHLIYKCGGIDKRTIEKFEKEAAEMGKGSFKYAWVLDKLKAERERGITIDISLWKFETTKYYITIIDAPGHRDFIKNMITGTSQADCAVLIVAAGVGEFEAGISKNGQTREHALLAYTLGVKQLIVGVNKMDSTEPAYSEKRYDEIVKEVSAYIKKIGYNPATVPFVPISGWHGDNMLEPSPNMPWFKGWKVERKEGNASGVSLLEALDTILPPTRPTDKPLRLPLQDVYKIGGIGTVPVGRVETGILRPGMVVTFAPVNITTEVKSVEMHHEALSEALPGDNVGFNVKNVSVKDIRRGNVCGDSKSDPPQEAAQFTSQVIILNHPGQISAGYSPVIDCHTAHIACKFAELKEKIDRRSGKKLEDNPKSLKSGDAAIVEMVPGKPMCVESFSQYPPLGRFAVRDMRQTVAVGVIKNVEKKSGGAGKVTKSAQKAQKAGK

Tested on: HCoV-OC43 gRNA and sgRNA
Type: binding
Conditions: for target (unweighted spectral count, OC43 Probe II) / background (unweighted spectral count, no-probe control): type n_48_v, 48 hpi; for target (unweighted spectral count, OC43 Probe II): OC43 Probe II capture on infected cells; for background (unweighted spectral count, no-probe control): no-probe control on infected cells

| Molecule | target (unweighted spectral count, OC43 Probe II) | background (unweighted spectral count, no-probe control) | target (unweighted spectral count) (OC43 Probe II, 12 hpi (type n_12_v), infected cells, tested against no-probe control) |
| --- | --- | --- | --- |
| B1 | 5 | 1 |  |
| B2 | 5 | 1 |  |
| B3 | 5 | 1 |  |
| B4 |  |  | 5 |
| B5 | 12 | 3 |  |
| B6 | 5 | 1 |  |
| B7 | 5 | 1 |  |
| B8 | 5 | 1 |  |
